According to patent US20020045591A1, “Methods and therapeutic compositions for treating cancer” (priority 1998, published 2002):

What was measured:
[1] = tested on: β-catenin-mediated transactivation; assay: TOPFLASH luciferase transactivation in SW480 cells (Example 1); type: cell-based, human; settings: SW480 cells transfected with TOPFLASH and N-cadherin derivative, FIG. 6A
Description: Cell culture and transfections: CHO and SW480 human colon carcinoma cells were cultured in Dulbecco's modified Eagle's medium containing 10% fetal calf serum in an 8% CO2 incubator at 37° C. Transfections were performed using Lipofectamine (Gibco, BRL, USA) according to the manufacturer's instructions. Stably transfected CHO clones were generated by co-transfection with a plasmid encoding the puromycin resistance gene. Two days after transfection, cells were replated in the presence of 10 μg/ml puromycin (Sigma, Holon, Israel). Stable clones were isolated 2 weeks later and tested for the expression of the transgene by Western blot analysis.
Transactivation assays: CHO cells were transfected with TOPFLASH or FOPFLASH vectors (van de Wetering et al., 1997, ibid) and with pCDNA3 coding for β-galactosidase to normalize for transfection efficiency. The transfection mixture also contained either β-catenin, LEF-1 or cadherin derivatives in different combinations, as indicated. SW480 cells were transfected with TOPFLASH and cadherin derivatives. […] The reactions were stopped with 1 M Na2CO3 and the absorbance at 420 nm was determined. […] The luciferase reaction was monitored by a TD-20e luminometer (Turner, USA) and normalized for the β-galactosidase activity. […]

SW480 cells = assay: Immunofluorescence localization in SW480 cells (Example 1); type: cell-based, human; settings: transfected SW480 cells, FIG. 6B
Description: Immunofluorescence microscopy: Cells cultured on glass coverslips were fixed with 3% paraformaldehyde in phosphate-buffered saline (PBS) and permeabilized with 0.5% Triton X-100. CHO cells were immunofluorescently labeled as described (Levenberg S. et al. (1998) Long-range and selective autoregulation of cell-cell and cell-matrix adhesions by cadherin or integrin ligands. J. Cell Sci. 111:347-357). Nuclei were visualized using DAPI and the fluorescence was examined using a Zeiss Axiophot microscope and a x100/1.3 Planapochromat objective.

B1: N-cadherin tail: Cytoplasmic domain of chicken N-cadherin tagged with a Flag epitope (protein)
chain: MKRRDKERQAKQLLIDPEDDVRDNILKYDEEGGGEEDQDYDLSQLQQPDTVEPDAIKPVGIRRLDERPIHAEPQYPVRSAAPHPGDIGDFINEGLKAADNDPTAPPYDSLLVFDYEGSGSTAGSLSSLNSSSSGGEQDYDYLNDWGPRFKKLADMYGGGDD
modifications: left off: small tags and cut ends
inhibition of TOPFLASH reporter (luciferase) activity [1]: more than 85% | subcellular localization of β-catenin (SW480 cells): colocalized with β-catenin in the nucleus
